Numbering of substitutions follows the chain as printed.
B1: antibody having both a humanized H-chain version “a” and a chimeric L-chain (antibody, V domains shown)
VH: QVQLVESGGGVVQPGRSLRLSCAASGFTFSSYGMSWVRQAPGKGLEWVATISSGGSYTYYPDSVKGRFTISRDNSKNTLYLQMNSLRAEDTAVYYCARQTTMTYFAYWGQGTLVTVSS
VL: QLVLTQSSSASFSLGASAKLTCTLSSQHSTYTIEWYQQQPLKPPKYVMDLKQDGSHSTGDGIPDRFSGSSSGADRYLSISNIQPEDEAMYICGVGDTIKEQFVYVFGGGTKVTVLG
notes: Human Cγ1 H-chain C-region
B2: humanized #23-57-137-1 antibody having H-chain version “a” and L-chain version “j” (antibody, IgG1, V domains shown)
VH: B1 VH
VL: QLVLTQSPSASASLGASVKLTCTLSSQHSTYTIEWYQQQPEKGPKYLMDLKQDGSHSTGDGIPDRFSGSSSGAERYLTISSLQSEDEADYYCGVGDTIKEQFVYVFGGGTKLTVLG
notes: Human Cγ1 (IgG1) and human λ C-regions; expressed in COS-7 cells; also called hMBC1Ljλ
B3: humanized #23-57-137-1 antibody having H-chain version “a” and L-chain version “l” (antibody, IgG1, V domains shown)
VH: B1 VH
VL: B2 VL with L47V
notes: Human Cγ1 (IgG1) and human λ C-regions; expressed in COS-7 cells; also called hMBC1Llλ
B4: humanized #23-57-137-1 antibody having H-chain version “a” and L-chain version “m” (antibody, IgG1, V domains shown)
VH: B1 VH
VL: B2 VL with K45R
notes: Human Cγ1 (IgG1) and human λ C-regions; expressed in COS-7 cells; also called hMBC1Lmλ
B5: humanized #23-57-137-1 antibody having H-chain version “a” and L-chain version “o” (antibody, IgG1, V domains shown)
VH: B1 VH
VL: B2 VL with K45R, L47V
notes: Human Cγ1 (IgG1) and human λ C-regions; expressed in COS-7 cells; also called hMBC1Loλ
B6: humanized #23-57-137-1 antibody having H-chain version “a” and L-chain version “q” (antibody, IgG1, V domains shown)
VH: B1 VH
VL: B2 VL with Y91I
notes: Human Cγ1 (IgG1) and human λ C-regions; expressed in COS-7 cells and in CHO cells; also called hMBC1Lqλ
B7: humanized #23-57-137-1 antibody having H-chain version “a” and L-chain version “t” (antibody, IgG1, V domains shown)
VH: B1 VH
VL: B2 VL with K45R, L47V, Y91I
notes: Human Cγ1 (IgG1) and human λ C-regions; expressed in COS-7 cells; also called hMBC1Ltλ
B8: hybrid antibody with humanized H-chain version a and L-chain hmmMBC1L(λ) (human FR1/mouse FR2,3,4) (antibody, V domains shown)
VH: B1 VH
VL: QLVLTQSPSASASLGASVKLTCTLSSQHSTYTIEWYQQQPLKPPKYVMDLKQDGSHSTGDGIPDRFSGSSSGADRYLSISNIQPEDEAMYICGVGDTIKEQFVYVFGGGTKVTVL
notes: Human Cγ1 and human λ C-regions; expressed in COS-7 cells
B9: hybrid antibody with humanized H-chain version a and L-chain m/hMBC1Laλ (mouse FR1,2/human FR3,4) (antibody, V domains shown)
VH: B1 VH
VL: QLVLTQSSSASFSLGASAKLTCTLSSQHSTYTIEWYQQQPLKPPKYVMDLKQDGSHSTGDGIPDRFSGSSSGAERYLTISSLQSEDEADYYCGVGDTIKEQFVYVFGGGTKLTVL
notes: as for B8
B10: mouse monoclonal antibody #23-57-137-1 against human PTHrP (1-34) (antibody, V domains shown)
VH: EVQLVESGGDLVKPGGSLKLSCAASGFTFSSYGMSWIRQTPDKRLEWVATISSGGSYTYYPDSVKGRFTISRDNAKNTLYLQMSSLKSEDTAMFYCARQTTMTYFAYWGQGTLVTVSA
VL: B1 VL
notes: Mouse antibody in hybridoma culture supernatant (FERM BP-5631); Lambda L-chain; also called MBC1
B11: chimeric #23-57-137-1 antibody with L-chain λ chain C-region (antibody, IgG1, V domains shown)
VH: B10 VH
VL: B1 VL
notes: Mouse V-regions joined to human H-chain C-region Cγ1 (IgG1) and human λ chain C-region (isotype Mcg+Ke+Oz-, EMBL X57819); Expressed in COS-7 cells; also called chimeric antibody (MBC1HcDNA/pCOS1 and MBC1L(λ)/neo)
B12: chimeric #23-57-137-1 antibody with L-chain κ chain C-region (antibody, IgG1, V domains shown)
VH: B10 VH
VL: B1 VL
notes: Mouse V-regions joined to human H-chain C-region Cγ1 (IgG1) and human κ chain C-region cloned from HEF-PM1k-gk; Expressed in COS-7 cells; also called chimeric antibody (MBC1HcDNA/pCOS1 and MBC1L(κ)/neo)

Each binder was assayed against T1, human PTHrP (1-34) (human) (assay: ELISA, plate coated with human PTHrP (1-34)).
T1 construct: Coated on the ELISA plate at 1 ug/ml; Added at 1 ng/ml final in the cAMP neutralisation assay, where the species is not restated; also called parathyroid hormone-related peptide (1-34)
Protocol: An ELISA plate for determining antigen-binding ability was prepared as follows. Each well of a 96-well ELISA plate was coated with 100 μl of a coating buffer containing 1 μg/ml of human PTHrP (1-34) and then blocked with 200 μl of a dilution buffer. Subsequently, each well was added with each of the serial dilutions of the COS-7 cell culture supernatant in which each of the hybrid antibodies and humanized antibodies was expressed, or added with each of the serial dilutions of each of the hybrid antibodies and humanized antibodies in a purified form. The plate was incubated at room temperature and washed with PBS-Tween 20. Subsequently, each well was added with 100 μl of alkaline phosphatase-conjugated goat anti-human IgG antibody (TAGO). The plate was incubated at room temperature and washed with PBS-Tween 20. Subsequently, each well was added with 1 mg/ml of a substrate solution ("Sigma 104"; p-nitrophenylphosphoric acid, SIGMA). The solution was measured on its absorbance at 405 nm using Microplate Reader (Bio Rad).

Binding result, binds:
B1
B2
B3
B4
B5
B6
B7
B8
B9

Each binder was assayed against T1, human PTHrP (1-34) (assay: solid phase RIA of hybridoma culture supernatant).
Protocol: The screening of hybridomas was performed by determining the presence of PTHrP-recognition antibodies in the culture supernatant of the wells in which cell growth had been observed in HAT medium, by solid phase RIA method. The hybridomas were collected from the wells in which the binding ability to the PTHrP-recognition antibodies had been confirmed. The hybridomas thus obtained was suspended into RPMI-1640 medium containing 15% FCS supplemented with OPI-supplement (Sigma), followed by unification of the hybridomas by limiting dilution method.

Binding result, binds:
B10

The binders below were run against T1, human PTHrP (1-34) (assay: ELISA, plate coated with human PTHrP (1-34); COS-7 supernatant or purified antibody).
Protocol: An ELISA plate for the determination of antigen-binding ability was prepared as follows. Each well of a 96-well ELISA plate was coated with 100 µl of a coating buffer supplemented with 1 µg/ml of human PTHrP (1-34) (Peptide Research Institute), and then blocked with 200 µl of a dilution buffer. Each well was added with each of the serial dilutions of the COS-7 cell culture supernatant in which each of the chimeric antibodies had been expressed, or added with each of the serial dilutions of each of the chimeric antibodies per se in a purified form. After the plate was incubated at room temperature and washed with PBS-Tween 20, each well of the plate was added with 100 µl of a solution of alkaline phosphatase-conjugated goat anti-human IgG antibodies (TAGO). After the plate was incubated at room temperature and washed with PBS-Tween 20, each well of the plate was added with 1 mg/ml of a substrate solution ("Sigma 104"; p-nitrophenylphosphoric acid, SIGMA). The solution was measured on its absorbance at 405 nm using Microplate Reader (Bio Rad).

Binding result, binds:
B11
B12

Source: patent US7655227 (Chugai, dated 2010)
